Experiments:
[1] = molecular target: recombinant human serum albumin from S. cerevisiae, biotin labelled (Homo sapiens, UniProt P02768, EZ-Link NHS-PEG4-Biotin labelled); assay: SPR
mouse serum albumin = mouse serum albumin (Mus musculus, UniProt P07724, EZ-Link NHS-PEG4-Biotin labelled); assay: SPR
mouse serum albumin, sequence (P07724 25-608): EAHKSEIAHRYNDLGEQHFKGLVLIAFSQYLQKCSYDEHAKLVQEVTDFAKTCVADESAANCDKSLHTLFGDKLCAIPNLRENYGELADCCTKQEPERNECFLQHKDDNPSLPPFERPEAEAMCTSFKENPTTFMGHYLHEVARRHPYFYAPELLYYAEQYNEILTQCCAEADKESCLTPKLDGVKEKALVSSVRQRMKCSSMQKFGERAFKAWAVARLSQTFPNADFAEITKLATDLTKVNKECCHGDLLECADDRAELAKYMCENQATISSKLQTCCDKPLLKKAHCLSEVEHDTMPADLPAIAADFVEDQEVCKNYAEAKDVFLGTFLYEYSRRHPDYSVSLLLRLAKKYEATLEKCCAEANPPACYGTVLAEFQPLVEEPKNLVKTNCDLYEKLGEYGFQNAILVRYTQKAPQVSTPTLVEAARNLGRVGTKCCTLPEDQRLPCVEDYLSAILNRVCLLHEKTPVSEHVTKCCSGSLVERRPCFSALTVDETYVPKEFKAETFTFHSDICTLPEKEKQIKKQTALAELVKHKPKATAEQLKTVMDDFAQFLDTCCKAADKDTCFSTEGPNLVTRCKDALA

recombinant human serum albumin from S. cerevisiae, biotin labelled, sequence (P02768 25-609): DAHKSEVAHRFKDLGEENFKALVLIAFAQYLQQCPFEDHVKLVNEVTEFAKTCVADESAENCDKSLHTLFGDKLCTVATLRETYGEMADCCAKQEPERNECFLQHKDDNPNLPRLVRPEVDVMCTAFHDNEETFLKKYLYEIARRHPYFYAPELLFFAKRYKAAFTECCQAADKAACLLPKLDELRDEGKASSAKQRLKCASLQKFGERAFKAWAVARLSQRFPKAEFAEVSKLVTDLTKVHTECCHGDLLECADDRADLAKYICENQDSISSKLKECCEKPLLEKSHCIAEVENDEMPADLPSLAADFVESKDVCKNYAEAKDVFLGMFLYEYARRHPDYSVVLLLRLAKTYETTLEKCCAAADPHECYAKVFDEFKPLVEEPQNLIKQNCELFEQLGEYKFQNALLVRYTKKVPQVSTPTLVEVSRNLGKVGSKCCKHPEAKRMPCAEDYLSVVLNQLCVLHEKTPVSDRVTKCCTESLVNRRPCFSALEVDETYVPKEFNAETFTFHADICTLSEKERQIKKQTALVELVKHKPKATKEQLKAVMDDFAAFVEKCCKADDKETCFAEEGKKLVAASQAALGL

- Kd [1]: 430 nM
- binding result (mouse serum albumin): no binding
B1: Nb.b201 (VHH)
VHH: QVQLQESGGGLVQAGGSLRLSCAASGYISDAYYMGWYRQAPGKEREFVATITHGTNTYYADSVKGRFTISRDNAKNTVYLQMNSLKPEDTAVYYCAVLETRSYSFRYWGQGTQVTVSS

From doi:10.1101/151043 (bioRxiv, 2017)
